Test [1] concerns the target DMF5 T cell receptor. Briefly: flow cytometry, tetramer titration on Jurkat T-cells transduced with DMF5.
The target in test [2] is DMF5 T cell receptor. Briefly: flow cytometry, barcoded tetramer library on Jurkat/MA cells transduced with DMF5. Background: A flow cytometer gives signals particle by particle.

Fold improvement in EC50 relative to photo-exchanged tetramers and percent of cells stained data for 1 substance are collected here from patent US20240294601A1.

Turning to “MART-1/HLA-A*02:01 tetramer (from UniProt P61769 21-119) (peptide-MHC)”, in the test with DMF5 T cell receptor [1], the fold improvement in EC50 relative to photo-exchanged tetramers came to 2.6 fold. Moreover, the percent of cells stained with DMF5 T cell receptor [2] stood at 33%.
